Assays:
[1] = target: Human opioid receptor subtype µ (human) (UniProt P35372); experiment: cell-based or functional assay
[2] = target: Human opioid receptor subtype δ2 (human) (UniProt P41143); experiment: cell-based or functional assay
Sequence of Human opioid receptor subtype δ2 (human) (P41143 whole entry, stated change not applied): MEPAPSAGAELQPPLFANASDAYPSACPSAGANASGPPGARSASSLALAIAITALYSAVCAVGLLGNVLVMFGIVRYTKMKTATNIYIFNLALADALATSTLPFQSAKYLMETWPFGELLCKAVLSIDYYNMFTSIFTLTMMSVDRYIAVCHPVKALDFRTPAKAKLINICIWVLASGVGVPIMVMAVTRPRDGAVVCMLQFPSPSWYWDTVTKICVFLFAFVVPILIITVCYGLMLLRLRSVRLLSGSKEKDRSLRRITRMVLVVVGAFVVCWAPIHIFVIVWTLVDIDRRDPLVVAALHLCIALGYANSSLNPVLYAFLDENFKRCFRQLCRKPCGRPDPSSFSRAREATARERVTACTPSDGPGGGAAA

Sequence of Human opioid receptor subtype µ (human) (P35372 whole entry): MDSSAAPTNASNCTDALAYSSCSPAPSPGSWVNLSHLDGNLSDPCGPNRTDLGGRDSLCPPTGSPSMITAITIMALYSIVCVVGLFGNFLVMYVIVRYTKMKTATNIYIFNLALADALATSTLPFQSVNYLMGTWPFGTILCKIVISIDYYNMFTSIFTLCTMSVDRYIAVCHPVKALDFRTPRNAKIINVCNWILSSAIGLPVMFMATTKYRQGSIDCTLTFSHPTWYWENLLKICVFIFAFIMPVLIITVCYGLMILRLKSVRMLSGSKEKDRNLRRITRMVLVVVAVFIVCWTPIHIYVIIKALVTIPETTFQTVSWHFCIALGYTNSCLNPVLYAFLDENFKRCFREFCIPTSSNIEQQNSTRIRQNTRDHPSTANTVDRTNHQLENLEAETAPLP

- increase in basal level fluorescence (binding of BODIPY-FL-GTPγS to receptor arrays) [1]: 2.5 fold
- increase in basal level fluorescence (binding of BODIPY-FL-GTPγS to receptor arrays) [2]: 10 fold
Substance: dynorphin A (from UniProt P01213 207-223) (peptide)

From patent US20020094544A1
